Experimental data: the DeepSol protein solubility set

assay: soluble on expression in E. coli; label from the status in PepcDB or PDB records

Sequence	soluble on expression in E. coli
MNELLAEMAAVSSRRKQSKPRRMSGEGDAMMSPIDLSTKSFDENNCEKGAGGALPLEDRSNILPHFSVPFANPQQFLSLCAQLGNSSSRNVSSTASTTSSCPIQSCSQSFSSPAALTWHVLDAHEDEQEIFSCDVCTTTFSNGQDIREHKCQKTLASRSTSVPPSTIPSSVCFLSTPTTPCLQFSINESIGTSEIREEDEEEDMDVEDGEHVANQLFGHLLQKSDDKSKMASLFNHAFPPFAAFPNMPPPFLMRQPFDPRADVFAAGRHDNDDDWEALMEISTSDEAEKIRALVGDKAVPTTDPNQCILCRRVLSCKSALQMHYRTHTGERPFKCKICQRAFTTKGNLKTHMGVHRSKHSFRGLPISLPPQLAAMHQHQHQIAPPQRIHIHNPPTSAASAAAAVAQIQASQQCPICQQRFLNAGELAVHITEHRNSLTQPPRVMPTPTTTRVQTFPFVPFFTTPPSLNATDMSTQFNLANILSAQLKNDSSPNTDTSSVEEKITRDDPPKMASLSPSNSSDSSSSVRQDILESSEFEEKLKKLEEPPILEQQVSTTPNPKNENPLLAMQKMWAETEPPPPRQMPVLSKHQCGVCFKHFSSSSALQIHMRTHTGDKPFKCDMCGRAFTTRGNLKVHMGTHSWQQSPSRRGRRIFDVASSVTEKPMLQSPILPTSGAPGASPLAMLGPNGLSGLEMMMMLWRTVCSVCQKVCQSPNELEQHLKEHLNNGSSAAPTPLASAATPPPS	not soluble
MNETIRRILAESGTKTSKIRKLLLIGLSHREIADLLTRGNRGFVWNVYKRMRDEGLLPASQTATVLRPEPDYTFNRCFGVEIEAYNCPRQTLTDALREAGIPVEIGSRNAETNSNWKLTTDGSLEGSHTFELVSPILCGEQGLEVLERVCWVLDAYNVKINSSCGVHVHFNAGDFNLTTWQNLILSYKHAETEIDKFMPASRRGNRNTYCRSLRGFSDEDIRSAESIESLQRLFGSRYMKVNLEAYSRHRTVEFRQHSGTINFTKIENWVRFLGRMIIFASTASLPAGIRLEDFPFLGEKQKLYYKLRTKKLMV	not soluble
MNFNTILEEILIKRSQQKKKTSPLNYKERLFVLTKSVLSYYEGRAEKKYRKGVIDISKIKCVEIVKNDDGVIPCQNKFPFQVVHDANTLYIFAPSPQSRDRWVKKLKEEIKNNNNIMIKYHPKFWADGSYQCCRQTEKLAPGCEKYNLFESSIRKTLPPAPEIKKRRPPPPIPPEEENTEEIVVAMYDFQATEAHDLRLERGQEYIILEKNDLHWWRARDKYGSEGYIPSNYVTGKKSNNLDQYEWYCRNTNRSKAEQLLRTEDKEGGFMVRDSSQPGLYTVSLYTKFGGEGSSGFRHYHIKETATSPKKYYLAEKHAFGSIPEIIEYHKHNAAGLVTRLRYPVSTKGKNAPTTAGFSYDKWEINPSELTFMRELGSGLFGVVRLGKWRAQYKVAIKAIREGAMCEEDFIEEAKVMMKLTHPKLVQLYGVCTQQKPIYIVTEFMERGCLLNFLRQRQGHFSRDMLLSMCQDVCEGMEYLERNSFIHRDLAARNCLVNEAGVVKVSDFGMARYVLDDQYTSSSGAKFPVKWCPPEVFNYSRFSSKSDVWSFGVLMWEIFTEGRMPFEKNTNYEVVTMVTRGHRLHRPKLASKYLYEVMLRCWQERPEGRPSFEDLLRTIDELVECEETFGR	soluble
MNFPWRDGNRVELLINGEEYFPRLFQCIAEARREILLETFIIFEDEVGRQLQEALSAAAERGVEVQVTVDGYGTASLSPDYLARLTASGVRVHLFDPRPRLLGMRTNLFRRLHRKLVVIDRRQAFVGGINYGEDHLVRRGNMAKQDYAVRVEGPVVRDIRQACLALLEPDADYPPLRPSGAGQPARVRLVIRDNDQSSDDIEREYLQAIRQARRRLLIANAYFFPGYRLLRELRDAARRGVRVDLVLQGMPDMPLVRLCSRLLYDYLLREGVRIHEYCQRPLHGKVAVIDDDWSTIGSSNLDPLSLSLNLEANLVIRDVAFNGQLYQHLRELARRHCRRISRRHARRGYWWRAPLIFLGFHFSRHFPAIAGWVPAHLPRLKSLEPRPSRRWQERQGQRGNP	not soluble
MNFRPIAGIDVGKFFSEMAILSPSNEVIARMKIRHDSSTDVERAVELLKKTEKDFDSRPFVVMESTGHYHKILFHSLYKAGFEVSVINPIQTDSIKNIGIRKVKNDKVDARKIALLYRFQELKIQYPERYGCWTLARNKACEVWYNRKGLAAALR	not soluble
MNFTDTHCHLADPALRENLPHILTAARKVGVKRFIVPATRPQDWQDVADLAEMPSEHGQIRIALGIHPWFSDGIAERDFVRLETMLAHYPQAWVGEIGLDFYDKTQTSQQRERQIQVFVRQLEIAQTLRRRVIIHNLKATADIAAAVKQTGFAQGGIVHAFSGSAEEARVLTKLGFKIGIGSLLLNPNARKVRDTLKALNDGDFVLETDSPFMLKKEINTPANIPGIAKIAAEIRGTCVEEIAKVTERNADALLGR	not soluble
MNFVTLTSDEFNAFTTKHFSHYTQSAIHYNHRVDLKGDVHLVGVKDDNGQVIAGCLLTEARTLKFFKYFYTHRGPVMDYTNQSLVAFFFKALTSYLKKHNCLYVLVDPYLIENLRNADGEIVKSYDNRAFVRTMDKLGYKHQGFPVGYDSMSQIRWLSVLDLKDKTEDQLLKEMDYQTRRNIKKTYDIGVKTKTLTIDETQTFFDLFHMAEEKHGFKFRELPYFEEMQKLYDDHAMLKLAYIDLNEYLKTLQLKQQQLTAELSGVEEALEESPNSKKNKTKRTQLEQQLNSNKRKIDNTIEQIEQDGAVLNLASALFIYNEHEVYYLSSGSNPKYNAYMGAYHLQWEMIKFAKAHHIDRYNFYGITGDFSESSEDYGVQQFKKGFNAHVEEYIGDFIKPIKPLLYKVQTYLNHKRR	not soluble
MNGAIFPWREDSRFQLLIDGPAFFPRMIAAIDRAEQQVDLELYLVEAGACADAVVRALVEAGRRGVIVRCLFDDFGSKAFDAGLRKQLTDAGVILRFYNPIHWRRGVRNFYRDHRKILVVDKALAVVGGTGVTDEFWEPDKDVSQWHEVMVEIAGPLVLDWQALFDRQFHANARRFAWRPKQNFGLDHLPKAPVTGEGLGRVAYADSRQHRDILQSLVRTLHSGQKRIWLATPYFLPTWKVRRALRSAAARGVDVRLLLTGPRTDHPSVRYAGHRYYPRLLRAGVKVFEYQPCFLHLKMVLIDDWVSIGSCNFDHWNLHFNLEANLEAHDPGLTRDVAASFEKDFALSTEITLEDWKARPLWRRVKQRLWGWIDRLVVNLLDQRN	not soluble
MNGKFDKYEYLQDLMRRRGFAWGSFEIYGGSRGFYDYGPLGATIKRKIERKIREAFIREGFFEIETPDITPEQVFIASGHVEKFVDPVVECKKCGMRFRADHLIEEFLGIDVEGKSAEEMSRIIREHGLKCPECGGELSDVFYFNLMFETYIGPYKDKKAYLRPETAQGIFVNFKRLNAFARNKLPFGVFQIGKAYRNEISPRQGMIRLREFTQAEAEIFFNPNETEHPHFNEVKHEKLKLYPIENQLKELGEVEVTAEEAVKRGYVMNSFFAYYMVMIKKILLDIGIPEDKIRFRQQLPEERAHYSADTWDAEVYSERFGWVECVGLAYRTDYDLSRHMKMSGADLTVMIHYDKPKVVKRIQVSLNMKKVGPKLKADAKKINEIIKSMDQKELEKLVKDLNEKGKVTIEGYELSKEDFIVKEVEEKITGEKIVPHVLEPSFGIDRPFYLLLENSLTVDEDGRIYLKIKKDMAPIEVAVLPLVAKEPLTTIAYEIYRTLQKEGFIVVYDEKDSIGKRYMRYDEIGTPYCVTVDNQTPEDGTVTIRDRDTREQIRVKIEELPRKLKELIFG	soluble
MNHQSYSAPTQAVAANTHLIYSTEQGGAVSPTPQKSIGSIADYDPMNGQWGTAAAQPRNSEKLGYLKAQVDKGPARFCADFAGAPPPSSNSISSTSPHSTLSSPQSTISPTGKAGFAVKAIYDYAAADKDEISFLEGDIIVNCEKIDDGWMTGTVQRTLQWGMLPANYVQPHKLPTGLHRLS	not soluble
MNHTSFRAIVVNETENHQFVRKVVEREVSSLPEGDVFIQVHYSSLNYKDALSATGNKGVTRTYPHTPGIDAAGVVVSSEDATIKAGDQVIVTGYDLGMNTSGGFGEYIRVPSSWVVPLPEGMSLKESMMYGTAGFTAALSVYKLIGAGVKPSMGDVLVTGATGGVGSVAVSILSKLGFNVVGATGKMEEEDMLLRLGAKKVIHRAELNDESGSPMLKGIYAGVIDTVGGHMLETALKTVKYGGCVTTCGNVAGQELQTTVYPFILRGISLLGIDSVQCPVDVRRDVWTLLAKEWGNKELLSYTEECTLEELEKKFALILQGKLKGRTVVKI	not soluble
MNIEEAKKLIDKQSIGKGGVGDIPVVKTHIVKVLLDQIDQPQPEVPRFVADWYEKHKDSLECDLYLYHMSIYDEEVEKDDFYYWMQTSKNPVYTLINMHQFGYTIQKEKLYTVEIPNPNERQLSFVLMRQLSGNVSIKVMHRDNLDLLKTDNDLQLTESEIRKDFDWAWQFREEVVE	not soluble
MNIEEIKIMGGFNKFGESEKVKELVVKRGEIFGVVGPTGSGKSNLISDIEQLAQGDTPSNRKILVNGNVPDTEMRRDPRKRRIAQLSQNMNFLADMTVEEFLIMHAKSRGMNSEGIVDKVIKLANNLTGEPIEKDYNLTILSGGQSRSLMVADVAVISDSPIVLIDEIENAGIKKHEALELLAGCGKIVMVITHDPVLALMTTRRVVMRNGGMNEIIETTE	not soluble
MNIIGLDISKDTIDATLHKTNGSIHYIKFKNNDDGLKQFRLWIKGNRIRKVYIGMEATGIYYEKAADMLSSYYTVYVINPLKIKDYGKSRFNRTKTDKADSNLIADYIKRHQDTLIPYQIPKNKALQKLINLKNQLHQHQKQIKNRLHSTEEDFIRNIHQDLIDTIQDKMEQVKIAISEQIKKQTDNNHYRNLQTIPSIGKDTASVLYAQLTEKHFKTANQFVSYAGLNPAIIQSGTSVRGRGRLSRYGNRRLKSTLYMPALCAYRFNAFPKLINNLKKAGKPKMVIIVAIMRKLAKLAYYIVKTGQPYDAERHRLNQ	not soluble
MNILLANPRGFCAGVDRAISIVELALEVHGAPIYVRHEVVHNRFVVDDLKAKGAIFVEELDEVPDSAIVIFSAHGVSQAVRQEAKRRGLKVFDATCPLVTKVHMQVARASKKGTKAILIGHQGHPEVIGTMGQYYNEQAGIFLVETVEDIANLPIHHHEDLTFMTQTTLSVDDTSGMIEALKNKYPAIQGPRKNDICYATTNRQQAVRELAKQAQLVLVVGSKNSSNSNRLAELASRMGVLAKLIDGPQDILPEWLDNVETIGITAGASAPEILVQSVVAHLQTLGATSVANLVGCEENMVFEVPKELRVREVKMAGDPLEHHHHHH	not soluble
MNILVTGAKGFVGRNLCAQLNNIKNGKARCYGDLKIEEVFEYDIDSTSEQLDAWCQKADFVFNLAGVNRPKENVEFMKGNFGFASTLLDTLKKHHNTCPVMLSSSAQASLTGRFGNSEYGRSKKAGEDLFLQYGKDTGAKVLVYRFPNLYGKWCRPNYNSAVATFCNNIANDLPIQVSDSSVVLELLYIDDLVDEMIHALKGEEHHCEFEGLDVHPLVDGRYCYCPVTHKVTLGEIVDLLHQFAEMPKTLMIPEIPSDSFAKRLYSTYLSYLPKEKAIFDLKMNVDQRGSFTELVHTLNCGQVSINISKPGITKGEHWHNTKWEQFIVVSGHGLIQLRKEGTDEVLNYEVSGDKIQSVIMLPGYAHNIINLSDTEDLVTVMYCNEIFNPDKPDTYFDKVKK	not soluble
MNINLETAEQHAVQAYSDKKIQINSIIYESSLIVSKKEIITDFVIKDIQDINNSYIDLLLRSKPELIIIGHLQTGKTLPATLISQLSQKRIGIECMSIGAACRTYNVLLSEHRAVVAGFIFLEHHHHHH	not soluble
MNITPLTSAAGKGSSAQGTDKISIPNSTRMINAASIKWLNKVRSAISDHIRTSIEKGKLFELASLGSNMFGVPALSARPSTLQPVLAFEADPNHDLNLVRVYMQDSAGKLTPWDPTPNAVTTTSNPSEPDAQSDTASSSLPRRPPAGSVLSLLGIALDHAQRHSPRADRSAKGRPGREERNGARFNAKQTKPTEAEAYGDHQTPNPDLHRQKETAQRVAESINSMREQQNGMQRAEGLLRAKEALQAREAARKQLLDVLEAIQAGREDSTDKKISATEKNATGINYQ	not soluble
